The target in the assay is GST-PITX2A-FL (full length) (UniProt Q99697-3 1-271). In words: cell-based or functional assay.

B1: Dact2, purified bacterially expressed protein (natural protein, mouse, UniProt Q7TN08 1-757, looked up)
chain: MWAPSGQGPAGWDRRRVGARLRAALAGLQELQGLRATQQARVRGALGLHPAPGPRGQELRLEAALTALREQLSRLRRQDAGLKTHLDQLDQQISELQLDVSRSSCEALDSDSRPSSGFYELSDAGSCSLSTSCASVCSDRLSPSLGSWLPVFQPSKSRSGIGDWRPRSADETTVPAWSPQLTEDSRLLHGAEGTGRLTGMFRPRPVSTGDLERVLPADVGLQRAGTDAAHLLGQGIEIPAHALDPTYQRDLVARGGQEVYPYPSPLHAVALQSPLFALPKEAPCFDICSPPQEPPLVPVDENRTQPEPIRELGSAEAYIHRLLHLRGQELPLRDVGQEQGGDTAAFPPKPCGQRSESTCQLEKQACGADRGGLKLGRGAAKDSLKQHGPVSLVGAEPLSSPLKEETIPWNPCVHGDNTVGSSPCSQAQQPLNDCGQGPVLSPSRVLGTESPPLAPEPFAYTSCTTGETSPVKLRMGFSQNKAVKVRRRVSEKVPRLGKQLPPQPERQRVTERDPSRPHQGGLSRRPTLAREPPGRSCSESTLYPVPFLVPVVVAQRESYPTSPQAFFPMEAALLSSAARRKQRRWQSTMEISAKAGSVSQPGPSMGLPRSPAKRGSGPRAQSRPTLARQDACARCESDPSEHSADCTSLYHSTIAETSEDEEASDHTANRFGDESSSNDSEGCFRGSRRRLAIGSAEAGQGGWAWPRVPPQQPSRAPGNTRPPLPPVPKLCRIKASKALKKKIRRFQPAALKVMTMV
With B1, the “luciferase reporter driven by the Amelx 2.2 kb promoter in cells co-transfected with PITX2A and Dact2: fold activation by PITX2A with Dact2 (∼22-fold without Dact2)” value was 14 fold activation.

These data come from article PMC3551926, “Dact2 Represses PITX2 Transcriptional Activation and Cell Proliferation through Wnt/beta-Catenin Signaling during Odontogenesis” (PLoS ONE, 2013).
